Consider twelve molecules from patent publication US20250257130A1 (NONA BIOSCIENCES SUZHOU, published 2025).

B1: PR303155 (antibody, human IgG1, V domains shown)
VH: EVQLVESGGGLVKPGGSLRLSCAASGFTLSDYYMSWIRQAPGKGLEWISYISSNGSTIYYADSVKGRFTISRDNARNSLYLQMNSLRAEDTALYYCARDVSSGWYEDFDYWGQGTLVTVSS
notes: HCAb (heavy chain-only, human IgG1 Fc), no light chain
B2: PR303145 (antibody, human IgG1, V domains shown)
VH: QVQLVESGGGLVKPGGSLRISCAASGFTFSNYNMSWIRQAPGKGVEWVSHISGSGRTIYYAESVKGRFTISRDNAKNSLYLQMNSLRAEDTAMYYCARDLSSGWYEDFDYWGQGTLVTVSS
notes: as for B1
B3: PR303199 (antibody, human IgG1, V domains shown)
VH: EVQLVESGGGLVKPGGSLRLSCAASGFTFSDYYMSWIRQAPGKGLEWIAYISSSGSTIYYADSVKGRFTISRDNAKNSLYLQMNSLRAEDTAIYYCAREYYGSENYDHFDYWGQGTLVTVSS
notes: as for B1
B4: PR005339 (antibody, human IgG1, V domains shown)
VH: B1 VH with R19K, L29F, L45V, S53N, Y59H, R76K, L93V, V100F, S101N, S102N
notes: as for B1
B5: PR005342 (antibody, human IgG1, V domains shown)
VH: EVQLVESGGGLVKPGGSLRLSCAASGFNFSDYYMSWIRQAPGKGLEWISYISNSSSTIYYADSVKGRFTISRDNAKNSLYLQMSRLRAEDTAMYYCARDTTNGWYEDFDYWGQGTLVTVSS
notes: as for B1
B6: PR005343 (antibody, human IgG1, V domains shown)
VH: EVQLVESGGGLVKPGGSLRLSCVASGFTFSDYYMSWIRQAPGKGMEWISYISSSGSTKNYANSVKGRFTISRDNAKNSLYLQMNSLRAEDTAAYYCARVPPYNASWYEDFDYWGQGTLVTVSS
notes: as for B1
B7: PR005347 (antibody, human IgG1, V domains shown)
VH: B6 VH with A24T, S53T, S54T, N77S, Y102S
notes: as for B1
B8: PR005337 (antibody, human IgG1, V domains shown)
VH: EVQLVESGGGLVKPGGSLRLSCAASGFIFSDYYMSWIRQAPGKGLEWVSYISSSGSTIHYADSVKGRFTVSRDNAKNSLYLQMNSLRTEDTAVYYCARDPPTSNSDWVSLHFDHWGQGTLVTVSS
notes: as for B1
B9: PR005341 (antibody, human IgG1, V domains shown)
VH: EVQLVESGGGLVKPGGSLRLSCVASGFTFSDYYMSWIRQAPGKGLEWISYISSSGSSIYYAESVKGRFTISRDNAKNSLYLQMNRLRAEDTALYYCARTPPSSDNWYEDFDYWGQGALVTVSS
notes: as for B1
B10: PR007413 (antibody, V domains shown)
VH: EVQLVESGGGLVKPGGSLRLSCAASGFTFSDFYMSWIRQAPGKGLEWISYINTRGSPIGYADSVKGRFTISRDNAKNSLYLQMNSLRAEDTAIYYCARDMPSSSSDWVDLQFDYWGQGTLVTVSS
notes: bivalent form (HCAb) variant of PR005340, no light chain
B11: PR007415 (antibody, V domains shown)
VH: B10 VH with N52D, T53S, R54S, S56R, I58L, G59A
notes: as for B10
B12: PR007414 (antibody, V domains shown)
VH: B10 VH with N52S, T53S, R54S, P57T, I58R, G59Y
notes: as for B10

Residue numbers refer to the chain shown, from its start.

T4 sequence (Q01974 34-403): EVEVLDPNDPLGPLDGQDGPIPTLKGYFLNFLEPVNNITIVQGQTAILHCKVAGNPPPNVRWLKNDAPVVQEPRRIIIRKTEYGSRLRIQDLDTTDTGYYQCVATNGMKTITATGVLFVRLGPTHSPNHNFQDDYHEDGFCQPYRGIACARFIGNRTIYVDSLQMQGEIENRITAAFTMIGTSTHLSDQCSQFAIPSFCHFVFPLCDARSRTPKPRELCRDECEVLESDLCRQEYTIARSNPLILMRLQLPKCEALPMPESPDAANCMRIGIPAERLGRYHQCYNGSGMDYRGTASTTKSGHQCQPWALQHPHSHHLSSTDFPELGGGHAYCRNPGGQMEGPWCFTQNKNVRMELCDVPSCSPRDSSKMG
T1 sequence (Q01973 30-937): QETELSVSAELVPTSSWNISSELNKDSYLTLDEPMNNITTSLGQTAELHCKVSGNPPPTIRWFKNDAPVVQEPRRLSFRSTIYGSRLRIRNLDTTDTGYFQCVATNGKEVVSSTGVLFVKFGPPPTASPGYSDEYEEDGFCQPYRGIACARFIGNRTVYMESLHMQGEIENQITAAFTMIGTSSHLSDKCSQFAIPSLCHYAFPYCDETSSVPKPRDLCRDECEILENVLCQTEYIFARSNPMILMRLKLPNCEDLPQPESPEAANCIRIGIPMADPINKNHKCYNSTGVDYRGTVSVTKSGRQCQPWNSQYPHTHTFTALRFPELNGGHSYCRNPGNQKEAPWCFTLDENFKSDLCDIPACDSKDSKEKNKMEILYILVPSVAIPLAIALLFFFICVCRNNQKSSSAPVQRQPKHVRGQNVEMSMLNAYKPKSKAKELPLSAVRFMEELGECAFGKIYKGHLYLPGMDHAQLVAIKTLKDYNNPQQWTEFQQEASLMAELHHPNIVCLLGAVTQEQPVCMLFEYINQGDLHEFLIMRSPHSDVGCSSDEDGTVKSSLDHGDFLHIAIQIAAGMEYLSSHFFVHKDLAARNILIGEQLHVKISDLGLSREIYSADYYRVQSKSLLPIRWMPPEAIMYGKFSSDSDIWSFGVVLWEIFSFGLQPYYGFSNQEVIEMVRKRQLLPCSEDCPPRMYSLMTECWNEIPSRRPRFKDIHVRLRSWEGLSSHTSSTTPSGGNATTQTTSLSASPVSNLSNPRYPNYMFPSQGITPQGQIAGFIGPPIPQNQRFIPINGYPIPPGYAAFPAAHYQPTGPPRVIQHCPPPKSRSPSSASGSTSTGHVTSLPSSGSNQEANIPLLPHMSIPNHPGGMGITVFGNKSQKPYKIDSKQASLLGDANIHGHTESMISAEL

The first assay addresses T1, human ROR1 on cells (HEK293T-hROR1, PANC-1, A549) (human, UniProt Q01973 30-937).
T1 construct: whole, on cells; one molecule for the three cell lines; also called huROR1; cell surface ROR1
As to the kind of experiment: flow cytometry, A549 cells. The protocol: (§1) In brief, anti-ROR1 antibodies were serially diluted in staining buffer (PBS containing 2% FBS). Antibody solution was incubated with 1×10⁵ cells at 4° C. for 1 hour. […] After 1-hour incubation at 4° C., cells were washed twice with staining buffer and subjected to flow cytometry. PR000374 (Bench marker 1) and non-relevant IgG isotype control (Crownbio) were used as positive and negative controls, respectively.
The term EC50 denotes the concentration needed to bring the measured effect to its halfway point. On to B1, for which the response was half-maximal at 1.32 µg/mL (EC50) and the “MAX(MFI)” value worked out at 791000 MFI.
The matching figures for B2: 0.93 µg/mL and 875000 MFI.
The matching figures for B3: 6.79 µg/mL and 408000 MFI.

The target in a further assay is T1, human ROR1 on cells (HEK293T-hROR1, …). As to the kind of experiment: flow cytometry, PANC-1 cells. The protocol: as §1
Molecule B4 gave a Max of 16200.
For B1, the EC50 came out at 1.07 µg/mL and the “MAX(MFI)” value came to 552000 MFI.
Take B5: the Max came to 16700.
In turn, B6 came in with a Max of 18300.
On the same count and under the same terms, in the case of B7 it was 16400; in that of B8, 14700.
B2: the EC50 was 0.654 µg/mL and the “MAX(MFI)” value was 653000 MFI.
The matching figures for B3: 11.3 µg/mL and 462000 MFI.
Molecule B9 came in with a Max of 16500.

The target is the same in a further assay. As to the kind of experiment: flow cytometry, PANC-1 cells. The source holds these as a separate data set. The protocol: as §1
Binding activity of the variants to PANC-1 cells were tested using the same method described in example 5.1. The results were shown in FIGS. 7-8 and Table 11 and Table 12.
For B10, the TOP is 89800.
B11 returned a TOP of 82800.
Same read-out and setting: as for B12, the figure is 88900.

The next assay deals with T2, Human ROR1-ECD-his (Acro Biosystems RO1-H522y) (human, UniProt Q01973 30-406).
T2 construct: extracellular domain; bought protein; also called hROR1-ECD-his; hu-ROR1-ECD-his
T2 sequence (Q01973 30-406): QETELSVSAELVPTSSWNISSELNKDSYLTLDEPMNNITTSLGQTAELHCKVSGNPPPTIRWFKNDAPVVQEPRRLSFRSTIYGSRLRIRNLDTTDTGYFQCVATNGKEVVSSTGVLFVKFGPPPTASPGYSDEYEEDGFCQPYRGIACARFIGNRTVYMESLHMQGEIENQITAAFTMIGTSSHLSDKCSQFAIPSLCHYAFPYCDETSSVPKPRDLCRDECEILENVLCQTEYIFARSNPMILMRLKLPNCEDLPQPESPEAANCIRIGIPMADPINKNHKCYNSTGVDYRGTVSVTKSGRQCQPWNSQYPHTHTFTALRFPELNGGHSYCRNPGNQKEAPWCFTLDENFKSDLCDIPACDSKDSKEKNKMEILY
As to the kind of experiment: ELISA, coated hu-ROR1-ECD-his. The protocol:
(§2) Binding of recombinant anti-ROR1 antibodies to hu-ROR1-ECD-his was tested by ELISA. In brief, 1 μg/mL hu-ROR1-ECD-his was added to the 96-well plate, 100 μL each well, incubated at 4° C. overnight, washing the plates with 1×PBST 3 times, 300 ul/well, blocking the plates with 2% BSA in 1×PBST, 200 ul/well at 37° C. for 1 hour, anti-ROR1 antibodies were serially diluted in staining buffer (PBS containing 2% BSA). Antibody solution was added to the plate and incubates at 37° C. for 1 hour, washing the plates with 1×PBST 3 times, 300 ul/well, adding secondary antibody 100 ul/well and incubate at 37° C. for 1 hour, washing the plates with 1×PBST 3 times, 300 ul/well and then add 100 ul/well TMB for about 5 min, stop the reaction by adding 100 ul/well 2M H₂SO₄, read the plates with Molecular device spectra max plus384 at 450 nm and 570 nm.
A general note: ELISA stands for enzyme-linked immunosorbent assay.
In the case of B1, the midpoint of the response, the EC50, lay at 0.002 µg/mL.
The same measure, in the same setting: as for B2, the figure is 0.002 µg/mL; as for B3, 0.006 µg/mL.

The next assay addresses T1, human ROR1 on cells (HEK293T-hROR1, …). As to the kind of experiment: flow cytometry, HEK293T-hROR1 cells. The protocol: as §1
In general terms: A flow cytometer gives signals particle by particle.
As to B1, the EC50 was found to be 0.267 µg/mL and the “MAX(MFI)” value stood at 1.49e+07 MFI.
As to B2, the EC50 worked out at 0.158 µg/mL and the “MAX(MFI)” value was 1.35e+07 MFI.
For the molecule B3, the midpoint of the response, the EC50, lay at 0.191 µg/mL and the “MAX(MFI)” value was 1.53e+07 MFI.

The next assay has as its target T3, cynomolgus ROR1 on CHO-K1-cynoROR1 cells (cynomolgus monkey, UniProt A0A2K5WTX7 30-937).
T3 construct: whole, on cells
As to the kind of experiment: flow cytometry, CHO-K1-cynoROR1 cells. The protocol:
(§3) Binding of recombinant anti-ROR1 antibodies to human or cynomolgus ROR1-overexpressing cells was tested by flow cytometry. In this example, ROR1-expressing cell lines are HEK293T cell lines that had been transfected to express human ROR1 on the surface (HEK293T-hu ROR1, KYINNO BIOTECHNOLOGY CO., LTD, Catalog #KC-1018), CHO-K1 cell lines that had been transfected to express cynomolgus ROR1 (CHOK1-cyno ROR1), PANC-1 (ATCC, catalog: CRL-1469) or A549 cell lines (Shanghai Institute of Biochemistry and Cell Biology, Chinese Academy of Sciences).
as §1
Consider B4, for which the Max was determined as 34800.
The same measure, in the same setting: in the case of B5 it was 34500.
Molecule B6 returned a Max of 34100.
The same measure, in the same setting: as for B7, the figure is 32700; as for B8, 31100.
B9 returned a Max of 32900.

In a further assay the target is T3, cynomolgus ROR1 on CHO-K1-cynoROR1 cells. As to the kind of experiment: flow cytometry, CHO-K1-cynoROR1 cells. The source holds these as a separate data set. The protocol:
as §1
B1: the EC50 was 0.804 µg/mL and the “MAX(MFI)” value is 1.1e+07 MFI.
In the case of B2, the EC50 came to 0.474 µg/mL and the “MAX(MFI)” value was determined as 1.04e+07 MFI.
The matching figures for B3: 1.43 µg/mL and 6.85e+06 MFI.

The target of a further assay is T2, Human ROR1-ECD-his (Acro Biosystems …). As to the kind of experiment: BLI, ROR1-His on HIS1K sensor, antibody in solution. The protocol: In the example, binding kinetics of anti-ROR1 antibodies to soluble ROR1 protein were analyzed by using Bio-Layer Interferometry (BLI) analysis on Fortebio Octet Red384 instrument (Fortebio).
In BLI analysis, recombinant anti-ROR1 antibodies was serially diluted with 10× kinetics buffer (Fortebio). Human ROR1-His proteins were diluted to 20 nM. Then the diluted antibodies, ROR1 proteins and regeneration buffer (10 mM glycine HCl pH 1.5) were added to 96-well plates (Greiner). Rate constants for association and dissociation were measured using HIS1K sensor (Fortebio). The sensor surface was regenerated after each binding experiment with regeneration buffer. The traces were processed using Octet Data Analysis Software (version 11.0, Pall ForteBio, CA, USA).
On the technique in general: Biolayer interferometry detects binding as a change in optical thickness at a sensor tip.
One may read the Kd as a measure of binding affinity in units of concentration. Low readings indicate higher affinity, high ones lower affinity. A word on the koff: it is the first-order rate constant of dissociation. For orientation: kon means a measure of how fast the partners come together. With B1, binding was characterised by a dissociation constant (Kd) of 6.83 nM, the koff is 0.00336 s⁻¹ and the kon turned out to be 492000 M⁻¹ s⁻¹.
The matching figures for B2: 11.1 nM, 0.0031 s⁻¹ and 278000 M⁻¹ s⁻¹.
For B3, in that order: 14.1 nM, 0.00173 s⁻¹ and 123000 M⁻¹ s⁻¹.

A further assay addresses T4, hu-ROR2-ECD-his (Acrobiosystems RO2-H52E5) (human, UniProt Q01974 34-403).
T4 construct: extracellular domain; bought protein; also called Human ROR2 his-tagged protein; Human ROR2, His Tag
As to the kind of experiment: ELISA, plate coated with hu-ROR2-his at 1 µg/mL. The protocol:
as §2, with “1” for “Binding of recombinant anti-ROR1 antibodies to hu-ROR1-ECD-his was tested by ELISA. In brief, 1”, “hu-ROR2-ECD-his (Acrobiocystems, RO2-H52E5)” for “hu-ROR1-ECD-his”
With B1, the binding result was “no binding (tested: about 15 µg/ml)”.
As to B2, the binding result is on record as “no binding (tested: about 15 µg/ml)”.
On the same count and under the same terms, as for B3, the entry is “no binding (tested: about 15 µg/ml)”.

A further assay has as its target T1, human ROR1 on cells (HEK293T-hROR1, …). As to the kind of experiment: flow cytometry on PANC-1 cells, MFI (APC-A Median). The protocol:
as §3, §1
The EC50 (read off the curve) is the concentration giving half of the maximal effect. Read a low EC50 (read off the curve) as greater potency. For B4, the “EC50 (read off the curve)” value was about 2 nM.
The same measure, in the same setting: in the case of B5 it was about 4 nM; in that of B6, about 2 nM; in that of B7, about 8 nM.
The same measure, in the same setting: in the case of B8 it was about 20 nM; in that of B9, about 2 nM.

The next assay has as its target T3, cynomolgus ROR1 on CHO-K1-cynoROR1 cells. As to the kind of experiment: flow cytometry on CHOK1-cynoROR1 cells, MFI (APC-A Median) [top panel]. The protocol:
as §3, §1
In the case of B4, the “EC50 (read off the curve)” value was about 4 nM.
The same measure, in the same setting: as for B5, the figure is about 7 nM; as for B6, about 4 nM; as for B7, about 10 nM.
On the same count and under the same terms, in the case of B8 it was about 20 nM; in that of B9, about 3 nM.

The next assay concerns the target T1, human ROR1 on cells (HEK293T-hROR1, …). As to the kind of experiment: flow cytometry on PANC-1 cells, MFI (Median-APC) [middle panel, letter not given].
For the molecule B10, the “EC50 (read off the curve)” value was about 0.6 nM.
Still for that read-out and setting: as for B11, the figure is about 0.4 nM.
B12: the “EC50 (read off the curve)” value is about 0.5 nM.
